In patent publication US20240254239A1 (LAEKNA THERAPEUTICS SHANGHAI, published 2024):
Blank lines part the entries; values can stand above or below the binder they belong to.

Assays:
human GPC3 ECD = molecular target: T1, human GPC3 ECD (human, UniProt P51654 25-559, limits assumed); assay: direct ELISA on coated recombinant ECD (30 ng/well), HRP-conjugated secondary antibody, luminescence
T1 construct: extracellular domain; also called recombinant extracellular domain of GPC3
Description: (§1) Briefly, recombinant extracellular domain of PDGFRb, FAPα, ULBP1, uPAR, IGF1R, SIRPA, PD-L1, ANTXR1, CD248, or GPC3 (30 ng/well) was coated on white optiplate™-384 well HB plate. After overnight coating, standard direct ELISA assay was performed. Luminescence signal was detected after using secondary antibody with HRP conjugated. Binding activity of each antibody was determined based on dose dependent binding curve.

human MICA ECD = molecular target: T2, human MICA ECD (human, UniProt Q29983 24-307); assay: ELISA on human MICA ECD, luminescence
T2 construct: extracellular domain
T2 sequence (looked up): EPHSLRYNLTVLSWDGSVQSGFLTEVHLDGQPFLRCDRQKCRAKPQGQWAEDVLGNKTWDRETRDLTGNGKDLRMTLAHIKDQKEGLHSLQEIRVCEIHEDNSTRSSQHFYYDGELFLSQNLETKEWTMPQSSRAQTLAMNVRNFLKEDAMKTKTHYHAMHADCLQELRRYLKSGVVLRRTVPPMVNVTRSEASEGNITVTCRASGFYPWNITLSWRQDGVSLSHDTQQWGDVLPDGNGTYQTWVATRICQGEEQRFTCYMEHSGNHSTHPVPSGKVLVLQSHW

Human PDGFRb ECD [1] = molecular target: T3, Human PDGFRb ECD (human, UniProt P09619 33-532); assay: ELISA on human PDGFRb ECD, luminescence
T3 construct: extracellular domain; also called recombinant extracellular domain of PDGFRb

Human PDGFRb ECD [2] = molecular target: T3, Human PDGFRb ECD; assay: direct ELISA on coated recombinant ECD (30 ng/well), HRP-conjugated secondary antibody, luminescence
Description: as §1

T3 sequence (P09619 33-532): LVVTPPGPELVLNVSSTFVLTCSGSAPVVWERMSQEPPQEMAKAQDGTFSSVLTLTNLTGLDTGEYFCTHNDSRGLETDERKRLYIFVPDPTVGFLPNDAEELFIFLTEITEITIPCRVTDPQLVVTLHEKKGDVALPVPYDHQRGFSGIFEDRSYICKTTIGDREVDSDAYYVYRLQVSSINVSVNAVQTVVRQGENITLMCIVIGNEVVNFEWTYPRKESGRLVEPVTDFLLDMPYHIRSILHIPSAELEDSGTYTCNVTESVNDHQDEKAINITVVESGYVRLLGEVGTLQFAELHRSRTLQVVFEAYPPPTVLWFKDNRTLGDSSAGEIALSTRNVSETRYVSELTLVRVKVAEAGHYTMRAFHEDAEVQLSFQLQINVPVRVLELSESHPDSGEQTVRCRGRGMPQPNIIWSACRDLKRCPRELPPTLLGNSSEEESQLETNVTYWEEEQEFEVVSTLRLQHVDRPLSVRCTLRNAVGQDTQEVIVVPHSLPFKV
T1 sequence (P51654 25-559 limits assumed): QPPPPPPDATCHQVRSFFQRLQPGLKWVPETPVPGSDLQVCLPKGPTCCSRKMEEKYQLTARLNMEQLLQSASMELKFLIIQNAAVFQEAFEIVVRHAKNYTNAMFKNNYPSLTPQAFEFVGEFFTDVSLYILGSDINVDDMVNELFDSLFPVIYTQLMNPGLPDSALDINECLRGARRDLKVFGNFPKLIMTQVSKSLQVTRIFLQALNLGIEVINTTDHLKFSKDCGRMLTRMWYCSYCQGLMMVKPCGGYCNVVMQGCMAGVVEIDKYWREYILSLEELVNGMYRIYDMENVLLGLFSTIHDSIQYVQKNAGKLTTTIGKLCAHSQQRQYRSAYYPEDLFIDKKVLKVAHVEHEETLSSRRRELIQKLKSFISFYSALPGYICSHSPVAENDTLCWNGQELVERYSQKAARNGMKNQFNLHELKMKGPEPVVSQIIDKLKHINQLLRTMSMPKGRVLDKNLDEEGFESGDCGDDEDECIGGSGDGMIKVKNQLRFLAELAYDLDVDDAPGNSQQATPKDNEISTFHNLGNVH

EC50 (read off the curve) (human GPC3 ECD): ~0.02 µg/mL
B1: α-GPC3 1 mIgG2a S239D/1332E (antibody, V domains shown)
VH: QVQLQQSGAELVRPGASVKLSCKASGYTFTDYEMHWVKQTPVHGLKWIGALDPKTGDTAYSQKFKGKATLTADKSSSTAYMELRSLTSEDSAVYYCTRFYSYTYWGQGTLVTVSA
VL: DVVMTQTPLSLPVSLGDQASISCRSSQSLVHSNGNTYLHWYLQKPGQSPKLLIYKVSNRFSGVPDRFSGSGSGTDFTLKISRVEAEDLGVYFCSQNTHVPPTFGSGTKLEIKR
notes: mIgG2a with S239D/I332E; also called α-GPC3 1 mIgG2a S239D/I332E; exemplary anti-GPC3 antibody (α-GPC3 1)

binding result (human MICA ECD): binds
EC50 (read off the curve) (Human PDGFRb ECD [1]): ~0.02 µg/mL
B2: α-PDGFRb 1-NKG2D KIH S239D/1332E (bispecific antibody, human IgG1, kappa)
heavy: QVQLQESGPGLVKPSETLSLTCTVSGFSLTNYAINWVRQPPGKGLEWLGIIWTGGGTSYNSALKSRLTISKDTSKNQVSLKLSSVTAADTAVYYCARTGTRGYFFDYWGQGTLVTVSSASTKGPSVFPLAPSSKSTSGGTAALGCLVKDYFPEPVTVSWNSGALTSGVHTFPAVLQSSGLYSLSSVVTVPSSSLGTQTYICNVNHKPSNTKVDKKVEPKSCDKTHTCPPCPAPELLGGPDVFLFPPKPKDTLMISRTPEVTCVVVDVSHEDPEVKFNWYVDGVEVHNAKTKPREEQYNSTYRVVSVLTVLHQDWLNGKEYKCKVSNKALPAPEEKTISKAKGQPREPQVCTLPPSREEMTKNQVSLSCAVKGFYPSDIAVEWESNGQPENNYKTTPPVLDSDGSFFLVSKLTVDKSRWQQGNVFSCSVMHEALHNHYTQKSLSLSPGK
chain: FLNSLFNQEVQIPLTESYCGPCPKNWICYKNNCYQFFDESKNWYESQASCMSQNASLLKVYSKEDQDLLKLVKSYHWMGLVHIPTNGSWQWEDGSILSPNLLTIIEMQKGDCALYASSFKGYIENCSTPNTYICMQRTVGGSGGGSGFLNSLFNQEVQIPLTESYCGPCPKNWICYKNNCYQFFDESKNWYESQASCMSQNASLLKVYSKEDQDLLKLVKSYHWMGLVHIPTNGSWQWEDGSILSPNLLTIIEMQKGDCALYASSFKGYIENCSTPNTYICMQRTVGGGGSGGGGSGGGGSGGGGSPKSSDKTHTCPPCPAPELLGGPDVFLFPPKPKDTLMISRTPEVTCVVVDVSHEDPEVKFNWYVDGVEVHNAKTKPREEQYNSTYRVVSVLTVLHQDWLNGKEYKCKVSNKALPAPEEKTISKAKGQPREPQVYTLPPCRDELTKNQVSLWCLVKGFYPSDIAVEWESNGQPENNYKTTPPVLDSDGSFFLYSKLTVDKSRWQQGNVFSCSVMHEALHNHYTQKSLSLSPGK
light: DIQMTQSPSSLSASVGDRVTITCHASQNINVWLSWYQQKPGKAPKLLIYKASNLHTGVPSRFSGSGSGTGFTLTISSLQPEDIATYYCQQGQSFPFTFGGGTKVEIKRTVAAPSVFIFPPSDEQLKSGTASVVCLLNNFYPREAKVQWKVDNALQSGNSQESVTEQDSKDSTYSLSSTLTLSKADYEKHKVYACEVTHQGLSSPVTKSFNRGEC
notes: The Fc carries S239D/I332E; also called α-PDGFRb 1-NKG2D KIH S239D/I332E; knob-into-hole bispecific antibody

EC50 (read off the curve) (Human PDGFRb ECD [2]): ~0.03 µg/mL
EC50 (read off the curve) (Human PDGFRb ECD [1]): ~0.02 µg/mL
B3: α-PDGFRb 1 S239D/1332E (antibody, human IgG1, kappa, V domains shown)
VH: QVQLQESGPGLVKPSETLSLTCTVSGFSLTNYAINWVRQPPGKGLEWLGIIWTGGGTSYNSALKSRLTISKDTSKNQVSLKLSSVTAADTAVYYCARTGTRGYFFDYWGQGTLVTVSS
VL: DIQMTQSPSSLSASVGDRVTITCHASQNINVWLSWYQQKPGKAPKLLIYKASNLHTGVPSRFSGSGSGTGFTLTISSLQPEDIATYYCQQGQSFPFTFGGGTKVEIKR
notes: also called α-PDGFRb 1 S239D/I332E; exemplary anti-PDGFRb antibody (α-PDGFRb 1)
